Positions count from the first letter of the chain named.
Assays:
cynomolgus CD47 ECD = biological target: T1, cynomolgus CD47 ECD (cynomolgus, UniProt A0A2K5X523 19-139); assay: SPR
T1 construct: extracellular domain

human CD47 ECD [1] = biological target: T2, human CD47 ECD (human, UniProt Q08722 19-139); assay: SPR
T2 construct: extracellular domain; also called human CD47 extracellular domain

mouse CD47 = biological target: T3, mouse CD47 (mouse, UniProt Q61735 19-140, limits assumed); assay: SPR
T3 sequence (looked up): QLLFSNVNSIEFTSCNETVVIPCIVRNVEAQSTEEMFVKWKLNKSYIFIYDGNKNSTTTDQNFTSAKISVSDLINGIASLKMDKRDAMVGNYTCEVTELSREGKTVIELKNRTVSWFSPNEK

[2] = biological target: T4, human CD47 expressed on the cell surface (human, UniProt Q08722 19-323); assay: cell-based or functional assay
[3] = biological target: T4, human CD47 expressed on the cell surface; assay: blocking of human SIRPα binding to OCI-Ly3 cells; competitor SIRPα at a saturating concentration, secondary antibody detection; OCI-Ly3 cells (CD20+ DLBCL line); blocking of human SIRPα binding
[4] = biological target: T4, human CD47 expressed on the cell surface; assay: blocking of human SIRPα binding to Raji cells; competitor SIRPα at a saturating concentration, secondary antibody detection; Raji cells (CD47+/CD20+ Burkitt's lymphoma line); blocking of human SIRPα binding
human CD20 on cells = biological target: T5, human CD20 on cells (human, UniProt P11836 1-297); assay: binding to Raji cells (CD20+/CD47+), MFI on the sheet (the legend paragraph 49 says SPR); the signal is not resolved between the CD20 and CD47 arms
T5 construct: whole, on cells; The CD20+ cells in these assays also carry CD47; also called CD20 on B cells and Raji cells
T5 sequence (looked up): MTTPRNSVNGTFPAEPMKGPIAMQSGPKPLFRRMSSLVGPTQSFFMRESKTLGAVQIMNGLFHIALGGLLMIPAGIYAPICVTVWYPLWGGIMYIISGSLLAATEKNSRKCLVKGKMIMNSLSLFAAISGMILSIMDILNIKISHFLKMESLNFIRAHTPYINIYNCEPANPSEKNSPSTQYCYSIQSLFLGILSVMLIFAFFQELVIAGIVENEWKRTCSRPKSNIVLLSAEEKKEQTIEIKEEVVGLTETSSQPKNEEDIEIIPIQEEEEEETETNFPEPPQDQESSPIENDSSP

human CD47 ECD [5] = biological target: T2, human CD47 ECD; assay: column 'Human CD47 KD (µM)'; the sheet names no assay (SPR per paragraph 7 and paragraph 162)
[6] = biological target: T4, human CD47 expressed on the cell surface; assay: cell-based or functional assay; remark: listed apart in the source
[7] = biological target: T4, human CD47 expressed on the cell surface; assay: blocking of human SIRPα binding to OCI-Ly3 cells; competitor SIRPα (FIG. 21)

B1: TPP-1360 (bispecific antibody, human IgG1, kappa)
light 1: NIQMTQSPSSLSASVGDRVTITCRASQDIHRYLSWFQQKPGKVPKHLIYRESRFVDGVPSRFSGSGSGTEFTLTISSLQPEDFATYYCLQYDEFPYTFGGGTKVEIKRTVAAPSVFIFPPSDEELKSGTASVVCWLNNFYPREAKVQWKVDNALQSGNSEESVTEQDSKDSTYSLSSTLELSKADYEKHKVYACEVTHQGLSSPVTKSFNRGEC
heavy 1: QMQLVQSGAEVKKPGSSVKVSCKASGFNIKDYYLHWVRQAPGKGLEWMGWIDPDQGDTYYAQKFQGRVTITRDRSTSTAYMELRSLRAEDTAVYYCNAAYGESSYPMDYWGQGTLVTVSSASTKGPSVFPLAPSSKSTSGGTAALGCLVKDYFPEPVTVSWNSGALTSGVHTFPAVLKSSGLYSLSSVVTVPSSSLGTQTYICNVNHKPSNTKVDKKVEPKSCDKTHTCPPCPAPELLGGPSVFLFPPKPKDTLMISRTPEVTCVVVDVSHEDPEVKFNWYVDGVEVHNAKTKPREEQYNSTYRVVSVLTVLHQDWLNGKEYKCKVSNKALPAPIEKTISKAKGQPREPQVYVLPPSREEMTKNQVSLLCLVKGFYPSDIAVEWESNGQPENNYLTWPPVLDSDGSFFLYSKLTVDKSRWQQGNVFSCSVMHEALHNHYTQKSLSLSPGK
light 2: QIVLSQSPAILSASPGEKVTMTCRASSSVSYIHWFQQKPGSSPKPWIYATSNLASGVPVRFSGSGSGTSYSLTISRVEAEDAATYYCQQWTSNPPTFGGGTKLEIKRTVAAPSVAIFPPSDERLKSGTASVVCVLNNFYPREAKVQWKVDNALQSGNSQESVTEQDSKDSTYSLSSRLTLSKADYEKHKVYACEVTHQGLSSPVTKSFNRGEC
heavy 2: QVQLQQPGAELVKPGASVKMSCKASGYTFTSYNMHWVKQTPGRGLEWIGAIYPGNGDTSYNQKFKGKATLTADKSSSTAYMQLSSLTSEDSAVYYCARSTYYGGDWYFNVWGAGTTVTVSAASTKGPSVFPLAPSSKSTSGGTAWLGCEVTDYFPEPVTVSWNSGALTSGVHTFPAVLESSGLYSLSSVVTVPSSSLGTQTYICNVNHKPSNTKVDKKVEPKSCDKTHTCPPCPAPELLGGPSVFLFPPKPKDTLMISRTPEVTCVVVDVSHEDPEVKFNWYVDGVEVHNAKTKPREEQYNSTYRVVSVLTVLHQDWLNGKEYKCKVSNKALPAPIEKTISKAKGQPREPQVYVYPPSREEMTKNQVSLTCLVKGFYPSDIAVEWESNGQPENNYKTTPPVLDSDGSFALVSKLTVDKSRWQQGNVFSCSVMHEALHNHYTQKSLSLSPGK
notes: IgG1 1+1 heterodimer: one detuned anti-CD47 arm and one rituximab-derived anti-CD20 arm; also called CD47×CD20 bispecific; CD47×CD20 IgG1
Cynomolgus CD47 ECD
  Kd: 4510 nM
Human CD47 ECD [1]
  Kd: 1700 nM
  fold decrease in affinity relative to the parental anti-CD47 binder: ~350 fold
Mouse CD47
  binding result: no binding
[2]
  IC50 of activation of macrophage phagocytosis, OCI-Ly3 cell line: 1.4 nM
  IC50 of activation of macrophage phagocytosis, Raji cell line: 1.8 nM
[3]
  EC50: 1.3 nM
[4]
  EC50: 1.64 nM
Human CD20 on cells
  binding result: binds

B2: TPP-1361 (bispecific antibody, human IgG1, kappa)
light 1: B1 light 1 with R24Q, K39D, K42T, K45Q
heavy 1: B1 heavy 1 with K43Q, R84A, R87T
light 2: B1 light 2
heavy 2: B1 heavy 2
notes: IgG1 1+1 heterodimer; also called CD47×CD20 bispecific
Human CD47 ECD [5]
  Kd: 2530 nM
[6]
  EC50 of macrophage phagocytosis of OCI-Ly3 cells (column 'OCI-Ly3 Mφ EC50 (µg/mL)'): 0.5 µg/mL
  EC50 of macrophage phagocytosis of OCI-Ly3 cells, repeat (column 'OCI-Ly3 Mφ EC50 (µg/mL) Repeat'): 0.45 µg/mL

B3: TPP-1367 (bispecific antibody, human IgG1, kappa)
anti-CD47 light chain: B1 light 1 with E51A, S52N, F54L, D56S
anti-CD47 heavy chain: B1 heavy 1
anti-CD20 light chain: B1 light 2
anti-CD20 heavy chain: B1 heavy 2
notes: IgG1 1+1 heterodimer; also called CD47/CD20 TPP1367; CD47×CD20 bispecific
Human CD47 ECD [5]
  Kd: 430 nM
[6]
  EC50 of macrophage phagocytosis of OCI-Ly3 cells (column 'OCI-Ly3 Mφ EC50 (µg/mL)'): 0.064 µg/mL
  EC50 of macrophage phagocytosis of OCI-Ly3 cells, repeat (column 'OCI-Ly3 Mφ EC50 (µg/mL) Repeat'): 0.046 µg/mL

B4: TPP-23 (408_437 with IgG1) (antibody, V domains shown)
VH: QMQLVQSGAEVKKPGSSVKVSCKASGFNIKDYYLHWVRQAPGKGLEWMGWIDPDQGDTEYAQKFQGRVTITRDRSTSTAYMELRSLRAEDTAVYYCNAAYGSSSYPMDYWGQGTLVTVSS
VL: NIQMTQSPSSLSASVGDRVTITCRASQDIHRYLSWFQQKPGKVPKHLIYRANRLVSGVPSRFSGSGSGTEFTLTISSLQPEDFATYYCLQYDEFPYTFGGGTKVEIK
notes: Monospecific IgG1 with the 408_437 Fab; also called parental CD47 mAb
[7]
  IC50: 0.11 nM

Source: patent publication US20220162330A1 (CELGENE, published 2022)
